From publication PMC7150778 (2020)
Where two headings read alike, the source gives them in different places.

T1: p85β iSH2 (UniProt O00459)
T1 chain: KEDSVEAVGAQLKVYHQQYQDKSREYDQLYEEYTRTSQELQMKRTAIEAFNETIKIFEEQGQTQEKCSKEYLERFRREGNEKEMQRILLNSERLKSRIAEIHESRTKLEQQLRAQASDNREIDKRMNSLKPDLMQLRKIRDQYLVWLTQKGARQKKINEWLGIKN

B1: 1918 NS1 ED-ΔCTT (protein)
chain: TMASVPASRYLTDMTLEELSRDWSMLIPKQKVAGPLCIRMDQAIMDKNIILKANFSVIFDRLETLILLRAFTEEGAIVGEISPLPSLPGHTAEDVKNAVGVLIGGLEWNDNTVRVSETLQRFAWRSSNENGRPPLTPKQKREMAGTIRSEV
B2: 1918 NS1 ED-CTT (protein)
chain: B1 chain

Key:
[1] = target: p85β iSH2 (UniProt O00459); conditions: cited from earlier work
[2] = target: NS1 ED (Influenza A virus) (UniProt P69278); conditions: cited from earlier work
[3] = target: T1, p85β iSH2

Molecule | Kd [3] [µM] | further results
1918 NS1 ED-CTT (from UniProt Q0PDM0) |  | Kd [1]: 0.3 µM
NS1 ED (from UniProt P69278) |  | Kd [2]: 89 µM
B1 | 0.37 | 
B2 | 0.7 | 
